From patent US20180237480A1 (UNIVERSITY OF EDINBURGH, published 2018)

Legend:
human fibrinogen = molecular target: T1, human fibrinogen (human, UniProt P02671 20-629; P02675 31-491; P02679 27-437); assay: solid phase adherence assay, 1 µg Fg per well, absorbance 590 nm
T1 construct: The three chains are general knowledge about fibrinogen; also called human Fg
T1 sequence 1: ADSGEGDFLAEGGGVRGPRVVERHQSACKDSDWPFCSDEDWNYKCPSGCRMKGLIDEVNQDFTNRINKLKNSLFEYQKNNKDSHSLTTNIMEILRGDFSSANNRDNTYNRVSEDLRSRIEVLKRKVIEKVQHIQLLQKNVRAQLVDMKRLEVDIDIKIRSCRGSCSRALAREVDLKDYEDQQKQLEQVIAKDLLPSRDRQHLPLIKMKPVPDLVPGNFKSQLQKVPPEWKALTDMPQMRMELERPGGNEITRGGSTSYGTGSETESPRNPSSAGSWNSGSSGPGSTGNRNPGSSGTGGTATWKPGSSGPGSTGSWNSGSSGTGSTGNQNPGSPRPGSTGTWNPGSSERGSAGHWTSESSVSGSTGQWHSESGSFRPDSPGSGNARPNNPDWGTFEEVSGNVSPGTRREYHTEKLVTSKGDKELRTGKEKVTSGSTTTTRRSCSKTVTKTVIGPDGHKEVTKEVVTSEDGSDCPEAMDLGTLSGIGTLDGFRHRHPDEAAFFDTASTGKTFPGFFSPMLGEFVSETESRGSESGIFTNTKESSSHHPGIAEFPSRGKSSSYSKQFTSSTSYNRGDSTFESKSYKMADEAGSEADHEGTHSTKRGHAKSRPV
T1 sequence 2: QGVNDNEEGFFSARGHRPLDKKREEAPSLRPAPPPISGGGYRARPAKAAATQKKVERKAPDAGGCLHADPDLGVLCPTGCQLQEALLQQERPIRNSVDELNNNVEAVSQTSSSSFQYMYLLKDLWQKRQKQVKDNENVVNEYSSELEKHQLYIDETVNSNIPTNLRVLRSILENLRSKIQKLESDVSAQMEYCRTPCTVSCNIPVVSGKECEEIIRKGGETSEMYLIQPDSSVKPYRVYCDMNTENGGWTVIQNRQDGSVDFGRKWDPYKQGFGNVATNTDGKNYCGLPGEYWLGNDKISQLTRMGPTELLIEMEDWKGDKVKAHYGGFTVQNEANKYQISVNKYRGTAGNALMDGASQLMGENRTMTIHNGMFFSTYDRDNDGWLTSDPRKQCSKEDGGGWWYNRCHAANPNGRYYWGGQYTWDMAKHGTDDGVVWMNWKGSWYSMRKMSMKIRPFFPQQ
T1 sequence 3: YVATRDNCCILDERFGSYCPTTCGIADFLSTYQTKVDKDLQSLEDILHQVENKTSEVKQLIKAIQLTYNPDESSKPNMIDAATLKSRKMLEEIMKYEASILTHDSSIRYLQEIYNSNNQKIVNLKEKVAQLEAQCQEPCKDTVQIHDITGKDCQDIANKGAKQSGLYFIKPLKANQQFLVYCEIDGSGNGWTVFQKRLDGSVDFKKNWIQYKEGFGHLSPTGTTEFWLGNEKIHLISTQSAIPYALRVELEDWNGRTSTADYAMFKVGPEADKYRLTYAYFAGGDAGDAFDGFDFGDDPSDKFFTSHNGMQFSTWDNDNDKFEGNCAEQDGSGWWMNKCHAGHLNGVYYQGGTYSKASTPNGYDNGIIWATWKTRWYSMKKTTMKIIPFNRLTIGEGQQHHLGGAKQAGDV

bovine fibrinogen = molecular target: T2, bovine fibrinogen (bovine, UniProt P02672 20-615; P02676 1-468; P12799 25-444); assay: as above
T2 construct: The three chains are general knowledge about fibrinogen; also called bovine Fg
T2 sequence 1: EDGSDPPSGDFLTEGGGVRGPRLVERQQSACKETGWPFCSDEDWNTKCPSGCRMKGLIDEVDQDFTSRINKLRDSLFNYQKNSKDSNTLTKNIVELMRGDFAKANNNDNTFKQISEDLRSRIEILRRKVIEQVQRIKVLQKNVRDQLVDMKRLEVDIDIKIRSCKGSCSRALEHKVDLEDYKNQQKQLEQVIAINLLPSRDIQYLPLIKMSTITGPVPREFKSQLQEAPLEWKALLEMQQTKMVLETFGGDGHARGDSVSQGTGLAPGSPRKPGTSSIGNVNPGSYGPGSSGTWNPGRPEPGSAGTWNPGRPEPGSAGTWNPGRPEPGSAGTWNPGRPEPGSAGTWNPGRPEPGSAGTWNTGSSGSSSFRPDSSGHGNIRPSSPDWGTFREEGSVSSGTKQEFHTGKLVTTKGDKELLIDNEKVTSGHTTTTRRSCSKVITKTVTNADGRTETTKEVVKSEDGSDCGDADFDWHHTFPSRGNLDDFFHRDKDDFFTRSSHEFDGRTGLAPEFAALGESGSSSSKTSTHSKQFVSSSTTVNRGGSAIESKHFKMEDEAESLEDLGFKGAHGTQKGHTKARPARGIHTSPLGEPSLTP
T2 sequence 2: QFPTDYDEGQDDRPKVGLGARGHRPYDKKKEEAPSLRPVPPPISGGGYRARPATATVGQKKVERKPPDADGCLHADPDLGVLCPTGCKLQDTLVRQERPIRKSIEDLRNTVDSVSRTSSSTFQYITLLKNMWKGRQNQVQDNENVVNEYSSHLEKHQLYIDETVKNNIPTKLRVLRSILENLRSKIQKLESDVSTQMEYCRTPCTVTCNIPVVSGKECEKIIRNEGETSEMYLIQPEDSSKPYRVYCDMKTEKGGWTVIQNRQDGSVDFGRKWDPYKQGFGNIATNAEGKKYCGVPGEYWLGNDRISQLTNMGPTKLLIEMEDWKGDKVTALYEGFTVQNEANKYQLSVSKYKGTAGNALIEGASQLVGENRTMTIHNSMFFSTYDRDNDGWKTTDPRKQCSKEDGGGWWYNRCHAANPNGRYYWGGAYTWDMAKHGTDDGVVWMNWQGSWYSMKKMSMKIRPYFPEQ
T2 sequence 3: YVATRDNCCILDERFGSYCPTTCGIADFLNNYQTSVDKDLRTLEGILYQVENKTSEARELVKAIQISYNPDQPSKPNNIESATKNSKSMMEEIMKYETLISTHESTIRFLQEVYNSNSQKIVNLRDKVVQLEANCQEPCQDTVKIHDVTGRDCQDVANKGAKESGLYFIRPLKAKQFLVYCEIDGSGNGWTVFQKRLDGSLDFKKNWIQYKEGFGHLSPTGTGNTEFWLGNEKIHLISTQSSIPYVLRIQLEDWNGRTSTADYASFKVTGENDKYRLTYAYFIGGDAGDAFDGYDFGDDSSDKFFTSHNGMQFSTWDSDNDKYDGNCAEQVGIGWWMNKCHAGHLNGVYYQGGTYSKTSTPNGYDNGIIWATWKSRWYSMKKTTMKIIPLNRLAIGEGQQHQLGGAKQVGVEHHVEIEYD

B1: SpsD of S. pseudintermedius ED99, full-length, expressed on L. lactis MG1363 (pOri23) (other)
chain: SEVSATTQEHNVETEQTKTEGELTTEVAQQAVSESAPIAENMQKTTSVASENAKEVTASDSTQEVTKTEAKDTATMKDSEIAQPVSEVNKPVTQTAAPVAEPSTANKQTSPRQVQELTAPMDTKVINVENGTDVTSKVKVEKSSITGHQNKDKTYHQSNTVNPHKAERVTLNYDWSFENGIKAGDYFDFQLSDNVDTNGISTIKKVPHIMDSQNSEQIIAYGEINENNRVRYRFMDYVNQKENLKGKLSLNLFIKPDKVQDEGKITVTSQLGKEMTSQEFDIKYIDGVKSPSGITLNGRLDELSKADQSFTHYSIFKPKHNNLTNVTLRGTVSNNAQQNEKNGQVNVYEYIGQGELPQSAYANVNDTKQFNDITKSMKSIKNNSNGYEITFDMNKDNHPYIIVYQGHFNNNAKDFDFSTNATGYQNLNQSEYSYYWPYNYSFNLTWDNGVAFYSNNASGEGNDKPVPPTYGYSPTVNTIQDTHADYPVMTFQQPGTLEETEDSMPITTLTESGEDRGENTSPIIETTEDSQPVEFEEETNHGIQDVTLHADAVDFEEETNHGEQDTVHHSDVVEYDEDTTTGMLTGAISDHTTEEGTMEYTTDGLLIEFDDEMNPNVSGQYDDITTDTIEESSHIDTFTELESEFGQHDGIVTFEEDTIVEKPKTEKGNRVPLVIDLSTPKHNHQFNIQPTDPNIDTSATYRIGNFVWRDEDHNGVQNDGEHGLEGVLVTLKTADGVVLNTTTSDANGHYQFTNVQKGKYIVEFTTPEGYEATSKHTTANTEKDSDGLIANIDVTQDDMSIDAGFFPLENWNPQPEPKNPDDREKPAPEQPDVPQPEPKNPDDREKPAPEQPDVPQPEPKNPDDREKPAPEQPDVPQPEPKNPDDKEKPAPEQPDVPQPEPKNPDDKEKPAPEQPDAPQPKPMLPGEKVKPKPTHPGEAMQTTPQDKSTSQTDEALPKTGESSSQSSALIFGGLLSLLGLGLLRRSSKQNRSSMK
notes: also called L. lactis expressing SpsD; putative MSCRAMM SpsD
- binding result (human fibrinogen): binds
- binding result (bovine fibrinogen): binds
